Source: patent publication US20250049960, “Multicomponent systems for site-specific genome modifications” (The Regents of the University of California, published 2025)

T1: BoMo R2 RT (Bombyx mori)
T1 chain: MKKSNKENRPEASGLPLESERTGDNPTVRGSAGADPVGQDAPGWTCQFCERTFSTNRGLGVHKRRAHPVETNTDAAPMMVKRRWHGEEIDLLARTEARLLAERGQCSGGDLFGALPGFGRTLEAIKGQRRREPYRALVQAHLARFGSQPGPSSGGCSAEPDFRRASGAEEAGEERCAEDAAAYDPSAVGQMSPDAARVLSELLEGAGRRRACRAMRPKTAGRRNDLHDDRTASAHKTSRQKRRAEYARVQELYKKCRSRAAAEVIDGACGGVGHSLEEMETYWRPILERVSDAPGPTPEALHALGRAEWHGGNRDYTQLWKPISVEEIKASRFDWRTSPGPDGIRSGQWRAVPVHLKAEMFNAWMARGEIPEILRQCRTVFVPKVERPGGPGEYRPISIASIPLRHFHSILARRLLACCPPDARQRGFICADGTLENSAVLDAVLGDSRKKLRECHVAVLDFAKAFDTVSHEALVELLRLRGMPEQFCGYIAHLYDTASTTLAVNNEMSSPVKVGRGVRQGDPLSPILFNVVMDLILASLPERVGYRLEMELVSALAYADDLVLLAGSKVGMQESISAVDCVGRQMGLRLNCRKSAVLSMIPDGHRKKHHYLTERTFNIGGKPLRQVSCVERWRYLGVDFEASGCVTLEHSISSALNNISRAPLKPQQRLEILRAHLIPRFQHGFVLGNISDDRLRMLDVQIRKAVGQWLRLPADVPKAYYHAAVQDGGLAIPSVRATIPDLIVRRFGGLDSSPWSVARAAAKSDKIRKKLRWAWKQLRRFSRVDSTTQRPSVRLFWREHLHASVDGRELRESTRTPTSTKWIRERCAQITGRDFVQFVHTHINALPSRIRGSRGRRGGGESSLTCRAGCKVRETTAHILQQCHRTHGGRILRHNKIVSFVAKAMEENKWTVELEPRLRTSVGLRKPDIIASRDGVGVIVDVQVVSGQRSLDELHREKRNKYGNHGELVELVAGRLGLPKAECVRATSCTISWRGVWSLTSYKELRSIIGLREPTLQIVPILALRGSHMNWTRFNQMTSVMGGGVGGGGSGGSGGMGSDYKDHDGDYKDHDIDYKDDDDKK

T2: OrLa R2 RT (Oryzias latipes)
T2 chain: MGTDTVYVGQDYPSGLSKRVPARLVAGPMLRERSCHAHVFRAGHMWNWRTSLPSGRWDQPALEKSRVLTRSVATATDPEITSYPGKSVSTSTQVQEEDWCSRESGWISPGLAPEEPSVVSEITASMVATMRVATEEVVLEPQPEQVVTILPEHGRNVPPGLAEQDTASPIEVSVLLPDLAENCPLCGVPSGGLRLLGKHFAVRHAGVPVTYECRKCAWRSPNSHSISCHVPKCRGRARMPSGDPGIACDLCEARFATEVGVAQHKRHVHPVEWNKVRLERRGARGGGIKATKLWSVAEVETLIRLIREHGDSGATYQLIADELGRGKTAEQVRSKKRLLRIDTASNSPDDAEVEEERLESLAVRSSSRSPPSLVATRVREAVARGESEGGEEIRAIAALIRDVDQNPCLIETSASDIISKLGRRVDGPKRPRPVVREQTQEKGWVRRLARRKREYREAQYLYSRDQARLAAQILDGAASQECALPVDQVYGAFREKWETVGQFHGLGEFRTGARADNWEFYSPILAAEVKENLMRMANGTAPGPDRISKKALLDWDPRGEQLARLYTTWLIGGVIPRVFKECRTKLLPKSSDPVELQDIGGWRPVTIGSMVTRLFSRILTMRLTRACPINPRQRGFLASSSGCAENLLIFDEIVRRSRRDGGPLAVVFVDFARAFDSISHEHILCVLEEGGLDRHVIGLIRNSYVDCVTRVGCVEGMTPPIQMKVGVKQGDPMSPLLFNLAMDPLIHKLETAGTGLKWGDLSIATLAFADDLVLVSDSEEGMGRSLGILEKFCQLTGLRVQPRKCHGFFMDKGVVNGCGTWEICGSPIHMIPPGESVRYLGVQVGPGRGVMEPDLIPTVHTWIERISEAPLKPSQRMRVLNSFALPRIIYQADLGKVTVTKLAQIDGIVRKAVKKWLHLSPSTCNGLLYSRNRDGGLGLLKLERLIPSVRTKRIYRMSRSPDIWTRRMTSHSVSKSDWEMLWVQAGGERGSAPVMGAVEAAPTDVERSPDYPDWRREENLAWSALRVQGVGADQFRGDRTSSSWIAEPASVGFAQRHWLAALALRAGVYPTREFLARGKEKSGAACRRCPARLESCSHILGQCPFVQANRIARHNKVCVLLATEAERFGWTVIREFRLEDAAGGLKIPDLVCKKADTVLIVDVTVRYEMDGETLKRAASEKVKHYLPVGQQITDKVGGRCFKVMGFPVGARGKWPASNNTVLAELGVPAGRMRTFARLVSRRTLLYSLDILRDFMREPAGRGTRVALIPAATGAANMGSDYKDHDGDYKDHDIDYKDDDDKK

B1: B. mori R2 3'UTR RNA (ssRNA)
RNA: UGAGCCUUGCACAGUAGUCCAGCGGUAAGGGUGUAGAUCAGGCCCGUCUGUUUCUCCCCCGGAGCUCGCUCCCUUGGCUUCCCUUAUAUAUUUUAACAUCAGAAACAGACAUUAAACAUCUACUGAUCCAAUUUCGCCGGCGUACGGCCACGAUCGGGAGGGUGGGAAUCUCGGGGGUCUUCCGAUCCUAAUCCAUGAUGAUUACGACCUGAGUCACUAAAGACGAUGGCAUGAUGAUCCGGCGAUGAAAA
B2: D. simulans R2 3'UTR RNA (ssRNA)
RNA: UAGCUAAAACGUUUGGUUCAAAACAUUUGCUUGCUGUCUUGGCAUAACAUCAAUAAAGGCAUAAACAUCGCAAAAUAAUGGUUAUAUAUAAAUGGCUAUGAGGAUGGUUUUAGUACGUAGGCGUUGCGGAACUUCGGUUCAGAUAGAGCAAUGAAUCGUGCAUGCUAGGAAAACUGACCACACGCAGUGUUGGCAGCCCUAGUAUCUUUCGAUAGAUUUCCAUACCUCCGCGAUCAAAAAAAAAAAAAAAAAAAAAAA
B3: O. latipes R2 3'UTR RNA (ssRNA)
RNA: UGAGGGGGACAGCUGGGAGUCUCGGCAUGAUUACAAAUCUUGCGCUGCACUCGGAUGUCGUCCCCGUGACGGACACAUUAAUCCGGAAAGCGAGUGGUGACUCGCCUCAAG

Key:
Details in all cases: tags: N-terminal FLAG (GT linker), from HEK293T
BoMo R2 RT [1] = target: T1, BoMo R2 RT; assay: pulldown; co-expressed in HEK293T, FLAG IP, cognate
Excerpt: (§1) 9 populations of HEK293T cells were transfected with different combinations of plasmids comprised of one of the pcDNA3.1 backbone plasmids expressing RT protein ORFs modified from B. mori (SEQ ID NO. 35, D. simulans (SEQ ID NO. 32), and O. latipes (SEQ ID NO. 8), and an additional plasmid expressing the 3′ UTR RNA from B. mori (SEQ ID 163), D. simulans (SEQ ID NO. 164), or O. latipes (SEQ ID NO. 154) R2 elements (see FIG. 11 A). Each RT protein was co-expressed with each 3′ UTR RNA.
(§2) After allowing sufficient time for the RT protein plasmids to be transcribed and translated and to associate with the transcribed 3′ UTR RNAs, cells were lysed and any RT protein+RNA template complexes were purified by FLAG immunopurification (Sigma FLAG antibody resin). RNA present in each input cell lysate and RNA associated with each immunopurified sample was purified. Equivalent aliquots of each input RNA sample and each RT-bound RNA sample were affixed to Hybond N+membrane (Cytiva) in a grid of spots. Membranes containing spots for each type of 3′ UTR RNA were probed together for the presence of the 3′ UTR RNA, as detected by hybridization to complementary oligonucleotide probes that were ³²P 5′-end-radiolabeled using T4 polynucleotide kinase (NEB). […]

BoMo R2 RT [2] = target: T1, BoMo R2 RT; assay: pulldown; co-expressed in HEK293T, FLAG IP, non-cognate
Excerpt: as §1, §2

OrLa R2 RT = target: T2, OrLa R2 RT; assay: pulldown; co-expressed in HEK293T, FLAG IP, cognate; more selective
Excerpt: as §1, §2

Binder	binding result (BoMo R2 RT [1])	binding result (BoMo R2 RT [2])	binding result (OrLa R2 RT)
B1	binds		
B2		binds	
B3		binds	binds
